According to US20100210525A1 (University of California, published 2010):
Non-standard residues stand in square brackets, D forms with d. No end group written: not given here. pY = N[C@@H](Cc1ccc(OP(=O)(O)O)cc1)C(=O)O

Legend:
[1] = target: T1, Talin F3 sub-domain, wild type (mouse, UniProt P26039 309-405, limits assumed); assay: ITC, peptide injected into talin F3, 23 C, 200 mM Tris, 300 mM NaCl, pH 7.5
T1 construct: domain: F3 sub-domain; U-15N labelled for NMR; also called Talin F3 wt; talin F3 domain
Method: (§1) Peptide concentrations were typically at 150 to 300 μM while protein concentrations ranged from 25 to 50 μM. For the W359A mutant, the protein concentration was 50 μM and the peptide concentration was 1 mM. Prior to ITC titrations, the peptides and proteins were in buffer consisting of 200 mM Tris, 300 mM NaCl, pH 7.5. All experiments were conducted at 23 degrees Celsius. […] The bottom panel is the binding curve, calculated using the software program Origin.
(§2) Isothermal titration calorimetry (ITC) was performed on a VP-ITC calorimeter (Microcal, Northampton, Mass.). Aliquots (8 μL) of wildtype ([…]p[…]) (SEQ ID NO: 2) or mutant chimeric peptide were injected into the cell containing wildtype or mutant talin F3 domain. Peptide concentrations were typically 150 to 300 μM while protein concentrations ranged from 25 to 50 μM. For the W359A mutant, the protein concentration was 50 μM and the peptide concentration was 1 mM. Prior to ITC titrations, the peptides and proteins were in 200 mM Tris, 300 mM NaCl, pH 7.5. In each experiment 37 injections were made. The experiments were performed at 23° C. All titrations were performed at least twice and with different protein preparations. Experimental data were analyzed using Microcal Origin software.

Talin F3 Q381V = target: T2, Talin F3 Q381V (mouse, UniProt P26039 309-405, limits assumed); assay: ITC, peptide injected into talin F3 Q381V, 23 C, 200 mM Tris, 300 mM NaCl, pH 7.5
T2 construct: domain: F3 sub-domain; As m1, with the mutation
Method: as §1, §2

Talin F3 W359A [2] = target: T3, Talin F3 W359A (mouse, UniProt P26039 309-405, limits assumed); assay: ITC
T3 construct: domain: F3 sub-domain; As m1, with the mutation; also called talin (W359A) mutant
Method: as §1, §2

Talin F3 W359A [3] = target: T3, Talin F3 W359A; assay: ITC, 1 mM peptide injected into 50 µM talin F3 W359A, 23 C, 200 mM Tris, 300 mM NaCl, pH 7.5
Method: as §1, §2

Talin F3 L325R = target: T4, Talin F3 L325R (mouse, UniProt P26039 309-405, limits assumed); assay: ITC, peptide injected into talin F3 L325R, 23 C, 200 mM Tris, 300 mM NaCl, pH 7.5
T4 construct: domain: F3 sub-domain; As m1, with the mutation
Method: as §1, §2

T1 sequence (P26039 309-405 limits assumed): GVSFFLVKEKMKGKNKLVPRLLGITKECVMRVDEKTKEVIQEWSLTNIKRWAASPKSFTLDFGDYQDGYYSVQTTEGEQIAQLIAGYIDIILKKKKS
T3 sequence (P26039 309-405 W359A limits assumed): as the sequence (P26039 309-405 limits assumed) above, with W51A counted along it
T4 sequence (P26039 309-405 L325R limits assumed): as the sequence (P26039 309-405 limits assumed) above, with L17R counted along it
T2 sequence (P26039 309-405 Q381V limits assumed): as the sequence (P26039 309-405 limits assumed) above, with Q73V counted along it

Kd [1] | Kd (Talin F3 Q381V) | fold reduction of affinity against wild-type talin F3 (Talin F3 W359A [2]) | Kd (Talin F3 W359A [3]) | Kd (Talin F3 L325R) | Binder
140 nM | 135 nM | ~1000 fold | 106000 nM | 212 nM | KKLLITIHDRKEFAKFEEERARAKWV[pY]SPLHYSAR (Integrin β3 tail residues N-terminal of W739, PIPKIγ residues C-terminal of it (numbered 740-746 in the deposited structure); also called β3 chimera; β3-integrin/PIPKIγ peptide) [β3/PIPKIγ chimeric peptide, wild type]
118 nM | – | – | – | – | KKLLITIHDRKEAAKFEEERARAKWV[pY]SPLHYSAR (also called β3 chimera F727A; β3-F727A) [β3/PIPKIγ chimeric peptide F727A]
105 nM | – | – | – | – | KKLLITIHDRKEFAKAEEERARAKWV[pY]SPLHYSAR (also called β3 chimera F730A; β3-F730A) [β3/PIPKIγ chimeric peptide F730A]
